# Data reported in patent US20160145328A1 (published 2016).
# Read-outs that look alike come from different tables or passages of the source.
# Experiments:
# human prolactin receptor = target: T1, human prolactin receptor (human, UniProt P16471 25-234); test: SPR (Biacore 2000), biotinylated antigen on streptavidin chip, purified VH
# T1 construct: also called hPRLR; PRLR (Prolactin Receptor)
# T1 sequence (looked up): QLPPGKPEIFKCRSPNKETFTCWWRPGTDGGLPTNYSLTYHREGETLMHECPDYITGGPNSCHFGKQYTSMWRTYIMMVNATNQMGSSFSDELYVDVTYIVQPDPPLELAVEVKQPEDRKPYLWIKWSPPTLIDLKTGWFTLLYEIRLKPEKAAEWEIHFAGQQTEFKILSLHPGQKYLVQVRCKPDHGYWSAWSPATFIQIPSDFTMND
# Method: (§1) The affinities of VH clones were measured using surface plasmon resonance (using a Biacore2000 instrument; GE Healthcare). For this purpose, biotinylated antigen diluted in PBS was injected over a streptavidin (SA) sensor chip (Biacore AB). Serial dilutions of purified VH were injected over the flow cell containing the corresponding target antigen. Equilibrium dissociation constants were calculated using the BIAevaluation 4.1 software package (Biacore AB).
# (§2) The antigen-specific VH domains were expressed and purified. Affinity measurements were performed by surface plasmon resonance on a Biacore 2000 instrument.
# protein A [1] = target: T2, protein A (UniProt P38507 37-477); test: Heat/Cool phage ELISA on protein A; signal after 80 C 10 min / 4 C 10 min as % of untreated sample
# T2 construct: also called Protein A superantigen
# Method: (§3) The aggregation-resistance of clones was analyzed by measuring retention of signal after heat incubation in a phage ELISA format (McCafferty et al., 1990; Jespers et al., 2004). Wells of a Nunc Maxisorp Immuno-plate were coated overnight with protein A at a concentration of about 5 μg/ml in phosphate-buffered saline (PBS). The plate was washed once with PBS and blocked with about 4% (w/v) milk powder diluted in PBS (MPBS). Single colonies were picked from agar plates and grown overnight in 2×TY medium (containing about 16 g/L tryptone; about 10 g/L yeast extract; about 5 g/L NaCl, pH 7.0) supplemented with about 15 μg/ml tetracycline shaking at about 30° C. Cells were removed by centrifugation and phages were biotinylated directly in the culture supernatant by adding biotin-PEO₄-N-hydroxysuccinimide (Pierce; about 50 μM final concentration). For heat selection, supernatant was first incubated at about 80° C. for about 10 min and then at about 4° C. for about 10 min. Supernatant was added to the blocked ELISA wells. After three washes with PBS, bound phage particles were detected using an Extravidin-HRP conjugate (Sigma) and 3,3′,5,5′-tetramethylbenzidine (TMB) substrate. Absorbance was calculated by subtracting measurements at 450 and 650 nm.
# Antigen-specific VH domains were selected from the Garvan-2 library by phage display against recombinant protein antigen. After selection, the domains were evaluated for aggregation-resistance using the “Heat/Cool” assay described in Example 1.2, and binding to either or protein A superantigen and or recombinant antigen.
# protein A [2] = target: T2, protein A; test: Heat/Cool phage ELISA: phage-displayed VH, 80 C 10 min then 4 C 10 min, captured on coated protein A; signal as % of untreated sample
# Method: as §3, with “Cells were removed by centrifugation and phages were biotinylated directly in the culture supernatant by adding biotin-PEO₄-N-hydroxysuccinimide (Pierce; about 50 μM final concentration). For heat selection, supernatant was first incubated at about 80° C. for about 10 min and then at about 4° C. for about 10 min. Supernatant was added to the blocked ELISA wells.” left out
# To identify additional residues in CDR1 that confer aggregation-resistance on VH, surface-exposed residues of DP47 between positions 26 to 35 (numbering according to the Kabat numbering system) were substituted for aspartic acid (D) or glutamic acid (E). […] Correctly folded VH were captured by protein A ELISA and the absorbance signal of the treated sample was calculated as a percentage of the untreated sample.
# protein A [3] = target: T2, protein A; test: as above; remark: listed apart in the source
# Method: as §3, with “nm. […]” for “nm.”
# protein A [4] = target: T2, protein A; test: as above; remark: listed apart in the source
# Method: as §3, with “For heat selection, supernatant was first incubated at about 80° C. for about 10 min and then at about 4° C. for about 10 min. Supernatant was added to the blocked ELISA wells.” left out
# VH domains were produced comprising negatively charged amino acids at positions 28 and/or 35 in CDR1 of DP47 and at least one other position, as set out in Table 7. Aggregation-resistance of the VH domains was assessed using the “Heat/Cool” assay as described in Example 1.2.
# [5] = target: T3, human tumor necrosis factor α (human, UniProt P01375 77-233); test: SPR (Biacore), biotinylated hTNF on streptavidin chip, purified VH injected from 4 µM down
# T3 construct: also called hTNF; human TNF
# T3 sequence (P01375 77-233 limits assumed): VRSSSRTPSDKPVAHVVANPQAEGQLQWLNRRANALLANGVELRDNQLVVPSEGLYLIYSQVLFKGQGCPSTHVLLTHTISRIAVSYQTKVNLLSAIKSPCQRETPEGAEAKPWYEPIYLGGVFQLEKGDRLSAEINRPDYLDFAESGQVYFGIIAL
# Method: The affinities of VH clones G07 (anti-hTNF; SEQ ID NO: 5) and G11 (anti-mIL-21; SEQ ID NO: 6) were measured using surface plasmon resonance (using a Biacore machine; GE Healthcare). For this purpose, biotinylated antigen diluted in PBS was injected over a streptavidin (SA) sensor chip (Biacore AB). Serial dilutions of purified VH (with concentrations ranging from about 0.125 to 4 μM) were injected at a flowrate of about 20 μl/min over the flow cell containing the corresponding target antigen. Equilibrium dissociation constants were calculated using the BIAevaluation 4.1 software package (Biacore AB).
# Two clones selected for their binding to human tumour necrosis factor (hTNF) or mouse interleukin 21 (mIL-21) were isolated from the Garvan-I libraries, as detailed above (see Materials and Methods section). […] Biacore affinity measurements of anti-human TNF clone G07 (SEQ ID NO: 5) and anti-mouse IL-21 clone G11 (SEQ ID NO: 6) were performed. Serial dilutions of each purified protein, starting at 4 μM, were run on a streptavidin (SA) chip coated with biotinylated hTNF and mIL-21, respectively.
# protein A [6] = target: T2, protein A; test: Heat/Cool phage ELISA: phage-displayed scFv, 80 C 10 min then 4 C 10 min, captured on coated protein A; signal as % of untreated sample
# Method: as §3, with “Cells were removed by centrifugation and phages were biotinylated directly in the culture supernatant by adding biotin-PEO₄-N-hydroxysuccinimide (Pierce; about 50 μM final concentration). For heat selection, supernatant was first incubated at about 80° C. for about 10 min and then at about 4° C. for about 10 min. Supernatant was added to the blocked ELISA wells.” left out
# The DP47-CDR1 mutants described above were paired with a common single variable light chain (VL; SEQ ID NO: 3) via a linker (SEQ ID NO: 4) in a scFv format (see the Materials and Methods section for full experimental details). […] Correctly folded scFv were captured by protein A ELISA and the absorbance signal of the treated sample was calculated as a percentage of the untreated sample.
# Hen-Egg-Lysozyme = target: T4, Hen-Egg-Lysozyme (hen, UniProt P00698 19-147); test: SPR (Biacore 2000), biotinylated antigen on streptavidin chip, purified VH
# T4 construct: Biotinylated for Biacore; also called HEL
# T4 sequence (P00698 19-147): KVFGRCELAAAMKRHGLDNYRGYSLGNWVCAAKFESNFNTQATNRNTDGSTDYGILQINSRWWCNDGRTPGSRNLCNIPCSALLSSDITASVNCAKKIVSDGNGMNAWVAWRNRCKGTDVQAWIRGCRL
# Method: as §1, §2
binder,measurement,setting,value
"VHPRLR_C02 (anti-hPRLR VH) (other, Human VH single domain antibody from the Garvan-2 library) VH: EVQLLESGGGLVQPGGSLRLSCAASGFRFADEDMGWVRQAPGKGLEWVSDISGDGYSTYYADSVKGRFTISRDNSKNTLYLQMNSLRAEDTAVYYCAKLPPVYLGGAFDYWGQGTLVTVSS",Kd,human prolactin receptor,< 100 nM
same,Retained binding (%) after heating,protein A [1],98.8%
HEL4 VH (other) VH: QVQLLESGGGLVQPGGSLRLSCAASGFRISDEDMGWVRQAPGKGLEWVSSIYGPSGSTYYADSVKGRFTISRDNSKNTLYLQMNSLRAEDTAVYYCASALEPLSEPLGFWGQGTLVTVSS,Retained binding (%) after heating,protein A [1],88.1%
same,Retained binding to protein A (%),protein A [2],80.2%
same,Retained binding to protein A (%),protein A [3],80.8%
same,Retained binding to protein A (%),protein A [4],87.7%
"VHhTNF_G07 (anti-hTNF VH) (other, not shown: small tags and cut ends, also called clone G07; anti-human TNF clone G07) VH: QVQLLESGGGLVQPGGSLRLSCAASGFRISDEDMGWVRQAPGKGLEWVSSIYGPSGSTYYADSVKGRFTISRDNSKNTLYLQMNSLRAEDTAVYYCASKEDYDTYNWGFWGQGTLVTVSS",Kd,[5],1860 nM
"DP47 VH G52aD (other, name in Kabat numbering) VH: QVQLLESGGGLVQPGGSLRLSCAASGFTFSSYAMSWVRQAPGKGLEWVSAISDSGGSTYYADSVKGRFTISRDNSKNTLYLQMNSLRAEDTAVYYCAKSYGAFDYWGQGTLVTVSS",Retained binding to protein A (%),protein A [3],2.1%
"scFv DP47 VH SYA31-33DED - linker - common VL (scFv, also called SYA31-33DED (scFv)) scFv: QVQLLESGGGLVQPGGSLRLSCAASGFTFSDEDMSWVRQAPGKGLEWVSAISGSGGSTYYADSVKGRFTISRDNSKNTLYLQMNSLRAEDTAVYYCAKSYGAFDYWGQGTLVTVSSGGGGSGGGGSGGGGSTDIQMTQSPSSLSASVGDRVTITCRASQSISSYLNWYQQKPGKAPKLLIYAYSDLQSGVPSGFSGSGSGTDFTLTISSLQPEDFATYYCQQLMTHPTTFGQGTKVEIKR",Retained binding to protein A,protein A [6],45%
VHHEL_G08 (anti-HEL VH) (other) VH: EVQLLESGGGLVQPGGSLRLSCAASGFRISDEDMGWVRQAPGKGLEWVSYIDNNGYSTYYADSVKGRFTISRDNSKNTLYLQMNSLRAEDTAVYYCAKKQYGYQNGGFDYWGQGTLVTVSS,Kd,Hen-Egg-Lysozyme,65 nM
same,Retained binding (%) after heating,protein A [1],83.8%
"VHHEL_H04 (anti-HEL VH) (other, Human VH single domain antibody from the Garvan-2 library) VH: EVQLLESGGGLVQPGGSLRLSCAASGFRFDAEDMGWVRQAPGKGLEWVSSIYGPSGSTYYADSVKGRFTISRDNSKNTLYLQMNSLRAEDTAVYYCAKYTSPPQNHGFDYWGQGTLVTVSS",Kd,Hen-Egg-Lysozyme,28 nM
same,Retained binding (%) after heating,protein A [1],87.8%
"scFv HEL4 VH - linker - common VL (scFv, also called HEL4 (scFv)) scFv: QVQLLESGGGLVQPGGSLRLSCAASGFRISDEDMGWVRQAPGKGLEWVSSIYGPSGSTYYADSVKGRFTISRDNSKNTLYLQMNSLRAEDTAVYYCASALEPLSEPLGFWGQGTLVTVSSGGGGSGGGGSGGGGSTDIQMTQSPSSLSASVGDRVTITCRASQSISSYLNWYQQKPGKAPKLLIYAYSDLQSGVPSGFSGSGSGTDFTLTISSLQPEDFATYYCQQLMTHPTTFGQGTKVEIKR",Retained binding to protein A,protein A [6],56%
